Experimental findings from paper PMC11371640, “Structural deficits in key domains of Shank2 lead to alterations in postsynaptic nanoclusters and to a neurodevelopmental disorder in humans” (Molecular Psychiatry, 2022) are described below.

Substitutions are numbered along the chain they refer to. Several values for one entry are separate records, joined by “and”; a condition that tells them apart may be missing. Equal entries are not always repeated. Some results are limits rather than exact numbers.

Assay [1] concerns the target T1, His6-SUMO-tagged SH3 to PDZ domains of Shank2 (R520-D727), V717F ( (human or rat cDNA cloned), UniProt Q9UPX8-3 520-727, V717F).
T1 construct: Shank2, SH3 to PDZ domains, residues R520-D727, patient variant V717F; numbers count on: NM_012309.5 (isoform of 1849 residues); source: E. coli BL21(DE3), purified (Ni-NTA agarose, G-25); not shown: His6, N-terminal, kept; SUMO, N-terminal, kept
T1 sequence (looked up): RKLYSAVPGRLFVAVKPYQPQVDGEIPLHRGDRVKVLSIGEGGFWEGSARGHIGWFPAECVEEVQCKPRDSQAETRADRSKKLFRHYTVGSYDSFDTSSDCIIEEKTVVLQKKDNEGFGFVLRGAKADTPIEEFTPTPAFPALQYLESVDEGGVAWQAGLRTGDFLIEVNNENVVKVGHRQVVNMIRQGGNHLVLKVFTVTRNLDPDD
Briefly: ITC; peptide in the syringe (200 µM; 1 mM for G643R), His6-SUMO SH3-PDZ protein in the cell (20-30 µM); 25 °C; 50 mM Tris-HCl pH 8.0, 100 mM NaCl, 1 mM EDTA; 1:1 binding model. To be noted: both partners purified.

Assay [2] has as its target T2, His6-SUMO-tagged SH3 to PDZ domains of Shank2 (R520-D727), N690S ( (human or rat cDNA cloned), UniProt Q9UPX8-3 520-727, N690S).
T2 construct: Shank2, SH3 to PDZ domains, residues R520-D727, patient variant N690S; numbers count on: NM_012309.5 (isoform of 1849 residues); source: E. coli BL21(DE3), purified (Ni-NTA agarose, G-25); not shown: His6, N-terminal, kept; SUMO, N-terminal, kept
T2 sequence (looked up): T1 sequence (looked up) with N171S, F198V
The description is as above. To be noted: both partners purified.

Assay [3] addresses T3, His6-SUMO-tagged SH3 to PDZ domains of Shank2 (R520-D727), WT ( (human or rat cDNA cloned), UniProt Q9UPX8-3 520-727).
T3 construct: Shank2, SH3 to PDZ domains, residues R520-D727; numbers count on: NM_012309.5 (isoform of 1849 residues); Cloned into pET-SUMO; also called His6-SUMO-SH3-PDZ fusion; Shank2 WT; source: E. coli BL21(DE3), purified (Ni-NTA agarose, G-25); not shown: His6, N-terminal, kept; SUMO, N-terminal, kept
T3 sequence (looked up): T1 sequence (looked up) with F198V
The description is as above. The note with it: both partners purified.

For assay [4], the target named is T4, His6-SUMO-tagged SH3 to PDZ domains of Shank2 (R520-D727), G643R ( (human or rat cDNA cloned), UniProt Q9UPX8-3 520-727, G643R).
T4 construct: Shank2, SH3 to PDZ domains, residues R520-D727, patient variant G643R; numbers count on: NM_012309.5 (isoform of 1849 residues); also called G643R mutant Shank2; G643R variant; source: E. coli BL21(DE3), purified (Ni-NTA agarose, G-25); not shown: His6, N-terminal, kept; SUMO, N-terminal, kept
T4 sequence (looked up): T1 sequence (looked up) with G124R, F198V
The assay is described as above. To be noted: both partners purified.

Assay [5] has as its target T5, His6-SUMO-tagged SH3 to PDZ domains of Shank2 (R520-D727), S610Y ( (human or rat cDNA cloned), UniProt Q9UPX8-3 520-727, S610Y).
T5 construct: Shank2, SH3 to PDZ domains, residues R520-D727, patient variant S610Y; numbers count on: NM_012309.5 (isoform of 1849 residues); source: E. coli BL21(DE3), purified (Ni-NTA agarose, G-25); not shown: His6, N-terminal, kept; SUMO, N-terminal, kept
T5 sequence (looked up): T1 sequence (looked up) with S91Y, F198V
The description is as above. To be noted: both partners purified.

For assay [6], the target named is T6, His6-SUMO-tagged SH3 to PDZ domains of Shank2 (R520-D727), N690S ( (human or rat cDNA cloned), UniProt Q9UPX8-3 520-727, N690S).
T6 sequence: T1 sequence (looked up) with N171S, F198V
Kind of assay: ITC.

The target of assay [7] is T7, His6-SUMO-tagged SH3 to PDZ domains of Shank2 (R520-D727), S610Y ( (human or rat cDNA cloned), UniProt Q9UPX8-3 520-727, S610Y).
T7 sequence: T1 sequence (looked up) with S91Y, F198V
Briefly: ITC.

Assay [8] addresses T8, His6-SUMO-tagged SH3 to PDZ domains of Shank2 (R520-D727), G643R ( (human or rat cDNA cloned), UniProt Q9UPX8-3 520-727, G643R).
T8 sequence: T1 sequence (looked up) with G124R, F198V
Briefly: ITC.

For assay [9], the target named is T9, His6-SUMO-tagged SH3 to PDZ domains of Shank2 (R520-D727), WT ( (human or rat cDNA cloned), UniProt Q9UPX8-3 520-727).
T9 chain: T1 sequence (looked up) with F198V
Kind of assay: ITC.

Assay [10] deals with T10, His6-SUMO-tagged SH3 to PDZ domains of Shank2 (R520-D727), V717F ( (human or rat cDNA cloned), UniProt Q9UPX8-3 520-727, V717F).
T10 sequence: T1 sequence (looked up)
Kind of assay: ITC.

B1: synthetic peptide of the complete PDZ ligand of GKAP (last 15 amino acids of GKAP/SAPAP1) (peptide)
peptide: ADSIEIYIPEAQTRL
notes: GKAP/SAPAP1, the last 15 amino acids (complete PDZ ligand), free N- and C-terminus; also called GKAP peptide; source: synthetic peptide (Genscript)
In the case of B1, the binding result in assay [1], in [2], in assay [3] and in assay [5] was “binds” each time. In assay [4], the “fold reduction of affinity against WT” value was > 70 fold. Further, the Kd was 411 nM in assay [6]; 910 nM in [7]; 22000 nM and 22500 nM in assay [8]; 319 nM and 320 nM in assay [9]; 848 nM in [10].
